This is an account of results in paper PMC6193142.

This test deals with fibrillin (of fibrillin microfibrils purified from the ciliary zonule) (bovine (endogenous in ciliary zonule)) (UniProt P98133). Description: negative-stain TEM with single-particle 3D reconstruction; microfibrils purified from bovine ciliary zonule; 2797 repeat particles; 2-fold symmetry imposed along the microfibril axis; sub-models of bead, arm and interbead; number of chains judged from volume and from fitting domain models into the interbead density.

Regarding “fibrillin (of fibrillin microfibrils purified from the ciliary zonule) (from UniProt P98133 25-2871) (natural protein)”, the stoichiometry N (molecules per microfibril repeat) came out at 8.
